{"source": "paper PMC7323586", "about": "(Journal of molecular biology, 2020)", "proteins": {"B1": {"name": "Bacillus subtilis xanthine phosphoribosyltransferase (XPRT), hexahistidine tag removed (enzyme, UniProt P42085 1-194, looked up)", "chain": "MEALKRKIEEEGVVLSDQVLKVDSFLNHQIDPLLMQRIGDEFASRFAKDGITKIVTIESSGIAPAVMTGLKLGVPVVFARKHKSLTLTDNLLTASVYSFTKQTESQIAVSGTHLSDQDHVLIIDDFLANGQAAHGLVSIVKQAGASIAGIGIVIEKSFQPGRDELVKLGYRVESLARIQSLEEGKVSFVQEVHS"}}, "biological_target": "the molecule itself", "experiment": "SEC", "data": [{"protein": "B1", "values": [{"measurement": "stoichiometry N", "value": 2}]}]}
